Source: patent US20240083986A1 (published 2024)

Experiments:
[1] = molecular target: T1, CHO produced recombinant Bet v 1 containing a S85A mutation with a C-terminal myc-myc hexahistidine tag … (Betula verrucosa (birch)); test: SPR, mAb captured via anti-hFc, 25 C
T1 chain: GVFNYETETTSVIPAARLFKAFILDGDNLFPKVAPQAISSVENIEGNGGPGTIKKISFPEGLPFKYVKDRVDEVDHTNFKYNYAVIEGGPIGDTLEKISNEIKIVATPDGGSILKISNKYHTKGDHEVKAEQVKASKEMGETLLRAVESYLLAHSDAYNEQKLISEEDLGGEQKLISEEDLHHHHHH

[2] = molecular target: T2, Celery (Api g 1, MyBiosource, Cat #MBS1171376) (Celery, UniProt P49372 1-154, limits assumed); test: SPR, mAb captured via anti-hFc, 25 C;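 further: Anti-Bet v 1 monoclonal antibodies probed on a Biacore 4000 in HBS-ET buffer at pH 7.4, rate constants fitted to a 1:1 model with mass transport limitation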
T2 construct: Bought reagent
T2 sequence (looked up): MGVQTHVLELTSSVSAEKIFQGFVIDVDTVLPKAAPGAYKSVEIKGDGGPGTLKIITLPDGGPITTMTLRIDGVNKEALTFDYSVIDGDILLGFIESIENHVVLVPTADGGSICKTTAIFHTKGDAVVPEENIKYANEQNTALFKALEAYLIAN

[3] = molecular target: T3, Alder (Aln g 1, MyBiosource, Cat #MBS1041484) (Alder, UniProt P38948 2-160, limits assumed); test: SPR, mAb captured via anti-hFc, 25 C
T3 construct: Bought reagent
T3 sequence (looked up): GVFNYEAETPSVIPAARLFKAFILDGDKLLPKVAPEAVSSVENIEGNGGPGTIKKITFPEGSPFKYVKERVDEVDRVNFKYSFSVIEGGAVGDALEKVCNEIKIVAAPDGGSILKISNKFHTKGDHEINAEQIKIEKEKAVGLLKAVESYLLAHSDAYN

[4] = molecular target: T4, Apple (Mal d 1, MyBiosource, Cat #MBS1224919) (Apple, UniProt P43211 2-159, limits assumed); test: SPR, mAb captured via anti-hFc, 25 C;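 further: biacore 4000 SPR, related allergen binding to purified anti-Bet v 1 mAbs, HBS-ET running buffer pH 7.4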
T4 construct: Bought reagent
T4 sequence (looked up): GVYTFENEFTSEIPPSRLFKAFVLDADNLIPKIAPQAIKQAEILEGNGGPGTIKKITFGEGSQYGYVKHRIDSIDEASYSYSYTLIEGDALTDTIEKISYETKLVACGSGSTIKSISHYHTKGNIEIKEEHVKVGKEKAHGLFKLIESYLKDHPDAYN

[5] = molecular target: T5, European Hornbeam (Car b 1 isoform 2, MyBiosource, Cat #MBS1043940) (European Hornbeam, UniProt P38950 2-160, limits assumed); test: SPR, mAb captured via anti-hFc, 25 C;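 further: related allergen binding to captured purified monoclonal antibodies, rate constants fitted to a one-to-one model with mass transport limitation, KD and t½ calculated from the rates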
T5 construct: Bought reagent
T5 sequence (looked up): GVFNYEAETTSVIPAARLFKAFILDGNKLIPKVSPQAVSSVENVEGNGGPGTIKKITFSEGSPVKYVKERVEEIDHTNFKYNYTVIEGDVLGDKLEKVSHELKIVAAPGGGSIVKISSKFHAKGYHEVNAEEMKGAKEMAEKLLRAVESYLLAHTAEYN

[6] = molecular target: T1, CHO produced recombinant Bet v 1 …; test: SPR, mAb captured via anti-hFc, 37 C
[7] = molecular target: T6, European Hornbeam (Car b 1 isoform 1A & 1B, MyBiosource, Cat #MBS1200018) (European Hornbeam, UniProt P38949 2-160); test: SPR, mAb captured via anti-hFc, 25 C
T6 construct: Bought reagent
T6 sequence (looked up): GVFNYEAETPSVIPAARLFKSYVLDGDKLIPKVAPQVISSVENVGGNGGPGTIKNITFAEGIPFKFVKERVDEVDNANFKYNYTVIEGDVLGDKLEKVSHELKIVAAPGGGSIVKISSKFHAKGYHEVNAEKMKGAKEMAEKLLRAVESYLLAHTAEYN

B1: H4H16943P (antibody, human IgG4, V domains shown)
VH: EVQLVESGGGLVQPGGSLRLSCTASGFMSSMYWMSWVRQAPGKGLEWVSNIKQDGTEKNYVESVKGRFTISRDNAKNSLYLQINSLRGEDTAVYYCARDLYSSSSGYYYYGLDVWGQGTTVTVSS
VL: DIVMTQSPLSLPVTPGEPASISCRSSQSLLHSNKYNYLDWYLQKPGQSPQLLIYLSSNRASGVPDRFSGSGSGTEFTLKISRVEAEDVGIYYCMQALHTPLTFGGGTKVEIK
notes: Fully human antibody with human IgG4 Fc (H4H prefix)
[1]
  100 nM natural Bet v 1- MMH Bound (RU): 0 RU
  binding result: no binding (tested: 100 nM)
[2]
  100 nM Analyte Bound (RU): 0 RU
  binding result: no binding (tested: 100 nM)
[3]
  100 nM Analyte Bound (RU): 1 RU
  binding result: no binding (tested: 100 nM)
[4]
  100 nM Analyte Bound (RU): -1 RU
[5]
  100 nM Analyte Bound (RU): 183 RU
  Kd: 0.335 nM
  koff: 0.000371 s⁻¹
  kon: 1.11e+06 M⁻¹ s⁻¹
  t½: 31 min
[6]
  100 nM natural Bet v 1-MHH Bound (RU): 0 RU
[7]
  100 nM Analyte Bound (RU): 26 RU
  Kd: 380 nM
  koff: 0.0578 s⁻¹
  kon: 152000 M⁻¹ s⁻¹
  t½: 0.2 min

B2: H4H16946P (antibody, human IgG4, V domains shown)
VH: EVQLVESGGGLVQPGGSLRLSCVASGFTFSNYDMNWVRQAPGEGLEWISYISYSDHNIYYIDSVKGRFTISRDNAKNSLYLQMNSLRAEDTAIYYCAREALASSSFDYWGQGTLVTVSS
VL: EIVMTQSPATLSVSPGERVTLSCRASQSVSGNLAWYQQKPGQAPRLLIYSASTGATGVPARFSGSGSGTEFTLTISSLQSEDFALYYCQQYNKWPRTIGQGTKVEIK
notes: as for B1
[1]
  100 nM natural Bet v 1- MMH Bound (RU): 83 RU
  Kd: 0.348 nM
  koff: 0.000141 s⁻¹
  kon: 405000 M⁻¹ s⁻¹
  t½: 82 min
[2]
  100 nM Analyte Bound (RU): 1 RU
  binding result: no binding (tested: 100 nM)
[3]
  100 nM Analyte Bound (RU): 2 RU
  binding result: no binding (tested: 100 nM)
[4]
  100 nM Analyte Bound (RU): 0 RU
  binding result: no binding (tested: 100 nM)
[5]
  100 nM Analyte Bound (RU): 63 RU
  Kd: 179 nM
  koff: 0.0138 s⁻¹
  kon: 76900 M⁻¹ s⁻¹
  t½: 0.8 min
[6]
  100 nM natural Bet v 1-MHH Bound (RU): 97 RU
  Kd: 0.655 nM
  koff: 0.000395 s⁻¹
  kon: 603000 M⁻¹ s⁻¹
  t½: 29 min
[7]
  100 nM Analyte Bound (RU): 63 RU
  Kd: 168 nM
  koff: 0.024 s⁻¹
  kon: 143000 M⁻¹ s⁻¹
  t½: 0.5 min

B3: H4H16950P (antibody, human IgG4, V domains shown)
VH: QVQLVQSGAEVKKPGASVKVSCKTSGYTFTNYGITWVRQAPGQGLEWMGWISAYNGNTNYAQNVQGRVTMTTDTSTSTAYMEVRSLRSDDTAVYYCARRSSMLHFQHWGQGTLVTVSS
VL: DIVMTQSPDSLAVSLGERATINCKSSQHVLYDSSNENYLAWFQQKPGQPPKLLIYWASTRESGVPDRFSGSGSGTDFTLTISSLQAEDVAVYYCQQYSSAPYTFGQGTKLEIK
notes: as for B1
[1]
  100 nM natural Bet v 1- MMH Bound (RU): 70 RU
  Kd: 2.21 nM
  koff: 0.000335 s⁻¹
  kon: 151000 M⁻¹ s⁻¹
  t½: 35 min
[2]
  100 nM Analyte Bound (RU): 0 RU
  binding result: no binding (tested: 100 nM)
[3]
  100 nM Analyte Bound (RU): 15 RU
  Kd: 175 nM
  koff: 0.016 s⁻¹
  kon: 91200 M⁻¹ s⁻¹
  t½: 0.7 min
[4]
  100 nM Analyte Bound (RU): -1 RU
[5]
  100 nM Analyte Bound (RU): 0 RU
  binding result: no binding (tested: 100 nM)
[6]
  100 nM natural Bet v 1-MHH Bound (RU): 83 RU
  Kd: 5.81 nM
  koff: 0.00125 s⁻¹
  kon: 215000 M⁻¹ s⁻¹
  t½: 9.2 min
[7]
  100 nM Analyte Bound (RU): -1 RU

B4: H4H16960P (antibody, human IgG4, V domains shown)
VH: QLQLQESGPGLVRPSETLSLTCTVSGGSISSSNYWWGWIRQPPGKGLEWIGSIYYSGITYYNPSLKSRVTISADTSKDQFSLKLRSVTAADTAVYYCAKLEWLRLDFWGQGTTVTVSS
VL: DIQMTQSPSSVSASVGDRVTITCRASQGISSWLVWYQQKPGKVPKLLIYAASSLQSGVPLRFSGSGSGTDFTLTISSLQPEDFATYYCQQAKSFPLTFGQGTRLEIK
notes: as for B1
[1]
  100 nM natural Bet v 1- MMH Bound (RU): 64 RU
  Kd: 0.789 nM
  koff: 0.000443 s⁻¹
  kon: 562000 M⁻¹ s⁻¹
  t½: 26 min
[2]
  100 nM Analyte Bound (RU): 0 RU
  binding result: no binding (tested: 100 nM)
[3]
  100 nM Analyte Bound (RU): 29 RU
  Kd: 147 nM
  koff: 0.0332 s⁻¹
  kon: 226000 M⁻¹ s⁻¹
  t½: 0.3 min
[4]
  100 nM Analyte Bound (RU): 1 RU
  binding result: no binding (tested: 100 nM)
[5]
  100 nM Analyte Bound (RU): 1 RU
  binding result: no binding (tested: 100 nM)
[6]
  100 nM natural Bet v 1-MHH Bound (RU): 72 RU
  Kd: 2.01 nM
  koff: 0.00177 s⁻¹
  kon: 879000 M⁻¹ s⁻¹
  t½: 6.5 min
[7]
  100 nM Analyte Bound (RU): 4 RU
  binding result: no binding (tested: 100 nM)

B5: H4H16967P (antibody, human IgG4, V domains shown)
VH: QVQLVESGGGVVQPGRSLRLSCAASGFTFSSYGMHWFRQAPGKGLEWVGVIWSDGSDKKYADSVKGRFTISRDNSKNTLYLLMNSLRDDDTAVYHCAREGGFLYSSSSHFDYWGQGTLVTVSS
VL: AIQMTQSPSSLSASVGDRVTITCRTSQGIRNDLGWYQQKPGKAPKLLIFAASSLQSGVPSRFSGSGSGTDFTLTISSLQPEDFAIYYCLQDYKYPFTFGGGTKVEIK
notes: as for B1
[1]
  100 nM natural Bet v 1- MMH Bound (RU): 0 RU
[2]
  100 nM Analyte Bound (RU): -1 RU
[3]
  100 nM Analyte Bound (RU): 0 RU
  binding result: no binding (tested: 100 nM)
[4]
  100 nM Analyte Bound (RU): -2 RU
[5]
  100 nM Analyte Bound (RU): 0 RU
  binding result: no binding (tested: 100 nM)
[6]
  100 nM natural Bet v 1-MHH Bound (RU): -1 RU
[7]
  100 nM Analyte Bound (RU): -1 RU

B6: H4H16971P (antibody, human IgG4, V domains shown)
VH: QVQLVESGGGVVQPGRSLRLSCAASGFTFSSYGLHWVRQAPGKGLEWVAVISDDGSYKFYADSMKGRFTISRDNSKNTLYLQMNSLRAEDTAVYYCAKDRGRSGWYYFDYWGQGTLVTVSS
VL: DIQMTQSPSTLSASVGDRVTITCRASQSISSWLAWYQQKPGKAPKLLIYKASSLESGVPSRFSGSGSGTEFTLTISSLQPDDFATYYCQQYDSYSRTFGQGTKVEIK
notes: as for B1
[1]
  100 nM natural Bet v 1- MMH Bound (RU): 58 RU
  Kd: 9.48 nM
  koff: 0.00386 s⁻¹
  kon: 407000 M⁻¹ s⁻¹
  t½: 3 min
[2]
  100 nM Analyte Bound (RU): 0 RU
  binding result: no binding (tested: 100 nM)
[3]
  100 nM Analyte Bound (RU): 41 RU
  Kd: 126 nM
  koff: 0.0118 s⁻¹
  kon: 93000 M⁻¹ s⁻¹
  t½: 1 min
[4]
  100 nM Analyte Bound (RU): 25 RU
  Kd: 494 nM
  koff: 0.0795 s⁻¹
  kon: 161000 M⁻¹ s⁻¹
  t½: 0.2 min
[5]
  100 nM Analyte Bound (RU): 23 RU
  Kd: 564 nM
  koff: 0.146 s⁻¹
  kon: 259000 M⁻¹ s⁻¹
  t½: 0 min
[6]
  100 nM natural Bet v 1-MHH Bound (RU): 60 RU
  Kd: 18.6 nM
  koff: 0.012 s⁻¹
  kon: 648000 M⁻¹ s⁻¹
  t½: 1 min
[7]
  100 nM Analyte Bound (RU): 1 RU
  binding result: no binding (tested: 100 nM)

B7: H4H16992P (antibody, human IgG4 S228P, kappa, V domains shown)
VH: QVQLQESGPGLVKPSETLSLTCSVSGGSITNYFWTWIRQSPGKGLEWIGYIYYSGGTNYNPSLKSRVTISIDTSKNQFSLNMNSVTAADTAVYYCAGSYYYGVDVWGQGTTVTVSS
VL: EIVLTQSPATLSLSPGERATLSCRASQSIKSFLAWYRQKPGQAPRLLIYDASNRPTGIPARFSGSGSGTDFTLTINSLESEDFAVYFCQQRNNWPFTFGPGTKVDIKR
notes: human IgG4 Fc; also called REGN5713; MAB1
[2]
  100 nM Analyte Bound (RU): 1 RU
  binding result: no binding (tested: 100 nM)
[3]
  100 nM Analyte Bound (RU): 5 RU
  binding result: no binding (tested: 100 nM)
[4]
  100 nM Analyte Bound (RU): 3 RU
  binding result: no binding (tested: 100 nM)
[5]
  Kd: 0.617 nM
[7]
  100 nM Analyte Bound (RU): 161 RU
  Kd: 1.2 nM
  t½: 34 min
